We go through 20 variants from the RNAGym collection of RNA variant scans (doi:10.7554/elife.90254).

B1: LINE1-full (parent)
chain: UACGUAGGUGGUUUUCCCCUGAUAGUGCUAAGGGGGCCUGGAAGUUUGGACUGGGCAGAGCUCAACACAGCGUGGCAAAGUGGCUGUGGCUAGACUGCCUCUCUGGAUUCCUCGUCACUCAGCAGGGCAUCUCUGAGAGAAAUGCC

In the data set the parent is B1. The data set is described as follows: self-cleavage, relative activity (ratio to wild type); higher = more cleavage; in vitro, sequencing; the parent is a self-cleaving ribozyme.
On to UACGUAGGUGGUUUUCCCCUGAUAGUGCUCAGGGGGCCUGGAAGUUUGGACUGGGCAGAGCUCAACACAGCGUGGCAAAGUGGCUGUGGCUAGACUGCCUCUCUGGGUUCCUCGUCACUCAGCAGGGCAUCUCUGAGAGAAAUGCC [A30C A107G], for which the self-cleavage is 2.06.

Turning to UACGUAGGUGGUUUUCCCCUGAUAGUGCGAAGGGGGCCUGGAAGUUAGGACUGGGCAGAGCUCAACACAGCGUGGCAAAGUGGCUGUGGCUAGACUGCCUCUCUGGAUUCCUCGUCACUCAGCAGGGCAUCUCUGAGAGAAAUGCC [U29G U47A], the self-cleavage came to 1.41.

Regarding UACGUAGGUGGUUUUCCCCUGAUAGUGCUCAGGGGGCCUGGAAGUUUGGACUGGGCAGAGCUCAACACGGCGUGGCAAAGUGGCUGUGGCUAGACUGCCUCUCUGGAUUCCUCGUCACUCAGCAGGGCAUCUCUGAGAGAAAUGCC [A30C A69G], the self-cleavage was determined as 0.

Take UACGUAGGUGGUUUUCCCCUGAUAGUGCGAAGGGGGCCUGGAAGUUUGGACUGGGCAGAGCUCAACACAACGUGGCAAAGUGGCUGUGGCUAGACUGCCUCUCUGGAUUCCUCGUCACUCAGCAGGGCAUCUCUGAGAGAAAUGCC [U29G G70A]: the self-cleavage came out at 0.27. Regarding UACGUAGGUGGUUUUCCCCUGAUAGUGCGAAGGGGGCCUGGAAGUUUGGACUGGGCAGAGCUCAACACAGCGUGGCAAAGUGGCUGUGGCUAGACUGCCUCUCUGGAUUCCCCGUCACUCAGCAGGGCAUCUCUGAGAGAAAUGCC [U29G U112C], the self-cleavage was found to be 1.36. The same measure for UACGUAGGUGGUUUUCCCCUGAUAGUGCUCAGGGGGCCUGGAAGUUUGGACUGGGCAGAGCUCAACACAGCGUGGCAAAGUGGCUGUGGCUAGACUGCCUCUCUGGAUUCCUUGUCACUCAGCAGGGCAUCUCUGAGAGAAAUGCC [A30C C113U]: 1.32; for UACGUAGGUGGUUUUCCCCUGAUAGUGCUCAGGGGGCCUGGAAGUUUGGACUGGGCAGAGCUCAACACAGCGUGGCAAAGUGGCUGUGGCUAGACUGCCUCUCUGGAUUCCUCGUCACUCAGCAGGGCAUCUCUGAGAGGAAUGCC [A30C A140G]: 1. Regarding UACGUAGGUGGUUUUCCCCUGAUAGUGCUCAGGGGGCCUGGAAGUUUGGACUGGGCAGAGCUCAACACAGCGUGGCAAAGUGGCUGUGGCUAGACUGCCUCUCUGGAUUCCUCGUCACUCAGCAGGGCAUCUCUGAGAGAGAUGCC [A30C A141G], the self-cleavage came out at 1.38.

As for UACGUAGGUGGUUUUCCCCUGAUAGUGCUCAGGGGGCCUGGAAGUUUGGACUGGGCAGAGCUCAACACAGCGUGGCAAAGUGGCUGUGGCUAGACUGCCUCUCUGGAUUCCUCGUCACUCGGCAGGGCAUCUCUGAGAGAAAUGCC [A30C A121G], the self-cleavage came out at 2.42.

With UACGUAGGUGGUUUUCCCCUGAUAGUGCGAAGGGCGCCUGGAAGUUUGGACUGGGCAGAGCUCAACACAGCGUGGCAAAGUGGCUGUGGCUAGACUGCCUCUCUGGAUUCCUCGUCACUCAGCAGGGCAUCUCUGAGAGAAAUGCC [U29G G35C], the self-cleavage was found to be 1.03. With UACGUAGGUGGUUUUCCCCUGAUAGUGCGAAGGGGGCCUGGAAGUUUGGACUGGGCAGAGCUCAACACAGCGUGGCAAAGUGGCCGUGGCUAGACUGCCUCUCUGGAUUCCUCGUCACUCAGCAGGGCAUCUCUGAGAGAAAUGCC [U29G U85C], the self-cleavage is 0.46. On to UACGUAGGUGGUUUUCCCCUGAUAGUGCUCAGGGGGCCUGGAAGUUUGGACUGGGCGGAGCUCAACACAGCGUGGCAAAGUGGCUGUGGCUAGACUGCCUCUCUGGAUUCCUCGUCACUCAGCAGGGCAUCUCUGAGAGAAAUGCC [A30C A57G], for which the self-cleavage amounted to 0.52. Take UACGUAGGUGGUUUUCCCCUGAUAGUGCGAAGGGGGCCUGGAAGUUUGGACUGGGCAGAGCUCAACACAGCGUGGCAAAGUGGCUGUGGCUAGACUGCCUCUCUGGACUCCUCGUCACUCAGCAGGGCAUCUCUGAGAGAAAUGCC [U29G U108C]: the self-cleavage is 0.54. The same measure for UACGUAGGUGGUUUUCCCCUGAUAGUGCGAAGGGGGCCUGGAAGUUUGGACUGGGCAGAGCUCAACACAGCGUGGCAAAGUGGCUGUGGCUAGACUGCCUCUCUGGAUUCCUCGUCACUCAGCAGGGCACCUCUGAGAGAAAUGCC [U29G U130C]: 0.63; for UACGUAGGUGGUUUUCCCCUGAUAGUGCGAAGGGGGCCUGGAAGUUUGGACUGGGCAGAGCUCAACACAGCGUGGCAAAGUGGCUGUGGCUAGACCGCCUCUCUGGAUUCCUCGUCACUCAGCAGGGCAUCUCUGAGAGAAAUGCC [U29G U96C]: 0.67. The same measure for UACGUAGGUGGUUUUCCCCUGAUAGUGCGAAGGGGGCCUGGAAGUUUGGACUGGGCAGAGCUCAACACAGCGUGGCAAAGUGGCUGUGGCUAGACAGCCUCUCUGGAUUCCUCGUCACUCAGCAGGGCAUCUCUGAGAGAAAUGCC [U29G U96A]: 0.06. As to UACGUAGGUGGUUUUCCCCUGAUAGUGCUCAGGGAGCCUGGAAGUUUGGACUGGGCAGAGCUCAACACAGCGUGGCAAAGUGGCUGUGGCUAGACUGCCUCUCUGGAUUCCUCGUCACUCAGCAGGGCAUCUCUGAGAGAAAUGCC [A30C G35A], the self-cleavage was found to be 1.51. As for UACGUAGGUGGUUUUCCCCUGAUAGUGCGAAGGGGGCCUGGAAGUUUGGACUGGGCAGAGCUCAACACAGCGUGGCAAAGUGGCUGUGGCUAGACUGCCUCUCAGGAUUCCUCGUCACUCAGCAGGGCAUCUCUGAGAGAAAUGCC [U29G U104A], the self-cleavage was 1.6. On to UACGUAGGUGGUUUUCCCCUGAUAGUGCGAAGGGGGCCUGGAAGUUUGGACUGGGCAGAGCUCAACACAGCGUGGCAAAGUGGCUGUGGCUAGACUGCCUCUCUGGAUUCCUCGUCACUCAGCAGGGCAUCUCUGAUAGAAAUGCC [U29G G137U], for which the self-cleavage is 1.04. Turning to UACGUAGGUGGUUUUCCCCUGAUAGUGCGAAGGGGGCCUGGAAGUUUGGACUGGGCAGAGCUCAACACAGCGUGGCAAAGUGGCUGUGGCUAGACUGCCUCUCUGGAUUCCUCGUCACUCAGCAGGGCAUCUCAGAGAGAAAUGCC [U29G U134A], the self-cleavage is 1.41.
